Results published in the DeepSol protein solubility set.

Experiment: soluble on expression in E. coli; label from the status in PepcDB or PDB records

Sequence: MSLGNPAAMLAAYNTSTQVAPQPQLGPRAGEVQLSSEQQAMIDYVLAGKDVIVDATVGSGKTTAIQRLCSIMGADHDVLYLTYSKLLKVDAQQRVRGAKVQNYHGIVYPHLLKAGIKCGISESIREFNKNFKHISRTFPSYDLLVIDEYQDINEDYAELLRNIKSVNPLMQIVMVGDLEQKVRSDTEGHHHHHH
- soluble on expression in E. coli: not soluble

Sequence: MAGFMKNAMSYLGMSDVVDDEDDYIEEDEEQKPASKSAFDSDHTVTPLASTTAPAASSTTKPFPGGRVNRITTIHPKSYEDAQLVGRALRDGVPVVLNLTGVAEAVAYRIVDFSAGVVFGVRGSLERVTPRVFLLSPAQVNIKVEEPTKPASAHDLFADAAALEHHHHHH
- soluble on expression in E. coli: not soluble

Sequence: MGSDKIHHHHHHMNTNDTELLRLFETLTTEQKIDIARHLLQNKDIKSTTVIATEEDKAISFAQPYVFAFTSNFRVFSDLDISKNEFRVLTYILEYMEFGNLINLSQSSLCKALNIASGNMSNIFKKLKQKGILVEHHGHLYINSNIFAKGLSHQLDEKRKEHLSNARSLHAELEQYPENYTDYSKQERRNLALETETKEIYTDAFIFSKKKKNNAVPNAKNSIKIDKPRKVYKRTKENEAARKDLADAKNHLKAVS
- soluble on expression in E. coli: not soluble

Sequence: MGSDKIHHHHHHMLDSSSGNAPDTHAAVDSAVLVSLDLNDSDSAENLEELRQLAASDRLAISAVVLGKRLRPDPATFAGSGKVDEIMGAVEQTGASLVIFNHDLSPAQQRNLEQRLRRRVIDRTSLILDIFAQRAKSHEGKLQVELAQLEHLATRLVRGWTHLERQKGGIGLRGPGETQLETDRRLLGKRVKVLKEKLAKFERQRALQRRARRRAQVMSVSLVGYTNAGKSTLFNRLTRGHTYVADQLFATLDATTRKLFIADRGPLVLSDTVGFIRDLPHTLVAAFRATLEETVQADLLLHVVDTSSSNRSEQIDEVNKVLKEIGADRIPQILVLNKTDLVDLPASSPGYQRDEYGRIVQVRLSAKTGEGLEFINLALSEALGERAALREPDNQSEAQDITSGYH
- soluble on expression in E. coli: not soluble

Sequence: SLRRAAKAEAQAWLLTERLAQAEERHRLLEDQSATQIELIKAQAAQSANAIAEQLIKRADENAKSRERLAEARLEAQLKPVAETLAKFEAQVTAVEKARAEETGGLKAQITALLEASTATQAEARKLSAALRRGAGVQGRWGEQTLRNVLEAAGLNSRFDFQEQFSVDSEEGRRRPDVKVTLPGGGVFVIDAKCSLNAFLEAQDATDEVLREAAMARHAQSVRTHMQGLSSKAYWDQFAGEGSPDFVAMFVPGDGFLAAALDRLPELMAEAMDRRVVLVTPTTLFALCKAVAYGWRAEDQAKNAARIVEVGRELYKRVSVMGAHAGAMGKALESAVGKYNQFVGSLESQVLTQARRFEDLSVDHEGKEIPEPPMVDQAVRPLTKLKAVGQSPTLTLGNDTPT
- soluble on expression in E. coli: soluble

Sequence: MREWKIIDSTLREGEQFEKANFSTQDKVEIAKALDEFGIEYIEVTTPVASPQSRKDAEVLASLGLKAKVVTHIQCRLDAAKVAVETGVQGIDLLFGTSKYLRAPHGRDIPRIIEEAKEVIAYIREAAPHVEVRFSAEDTFRSEEQDLLAVYEAVAPYVDRVGLADTVGVATPRQVYALVREVRRVVGPRVDIEFHGHNDTGCAIANAYEAIEAGATHVDTTILGIGERNGITPLGGFLARMYTLQPEYVRRKYKLEMLPELDRMVARMVGVEIPFNNYITGETAFSHKAGMHLKAIYINPEAYEPYPPEVFGVKRKLIIASRLTGRHAIKARAEELGLHYGEEELHRVTQHIKALADRGQLTLEELDRILREWITAHHHHHH
- soluble on expression in E. coli: soluble

Sequence: MVSKLVKIEPKFKLIEKDGKGEYFIAKYNILPENLLVYGPEQELKKINTIQTNVKEFDTRTLFVSDYLEVVPPNPLVMFEKSHVVVNIYLNKLEHHHHHH
- soluble on expression in E. coli: not soluble

Sequence: MEDDDLLPLSALQHYLYCPRQCALIHLEQQWEDNAQTAEGRLLHERADKPAMETRRGVRTASAMALASPRLGIAGVADIVEFHDWSDGERAYPVEYKRGRPKAHRADEVQLCAQALCLEDMLGAAIPEGALYYGKTRRRRPVAFDNALRRLTLETIAAARAMFDSRQTPRMGYEARRCDACSLLERCQPRLLDRAQSVDQWLKQQWDALEHHHHHH
- soluble on expression in E. coli: not soluble

Sequence: MFSPVKSTKVYEQIIEQFKIMIANGTLKKGDKLPSERELVSQLGVSRASIREALSALQMIGFVEARHGEGNFIRENFEESLIDPFLLIFMLNGSNKEQILELRRIIEVETAALAAKKITDEEVKELEVCLENLTEAENETLKGKYDKKFHYNIAKASKNILIVNMLNAVSSLMDSFISEARGRILMVEDNKNVLMKQHRSMLEALKNHDSKAASNAMSEHLDLIYEYIIKK
- soluble on expression in E. coli: not soluble

Sequence: MGSDKIHHHHHHFDKIPTNPNLYHDVSSFSTADLTGKVQKIKLGSKFKIRSLITNKAKTPVFKLSNGRFIRASHDNVYEDIVLRRENVKGSYWLKKTFTVYQTPYVAGTKIANTKLTNYNKVHISQKAITKHGIYLKADGQGWINEKDLTVQDNRMEKVQALLTRKYNKPNYSIYVKQLKTRKTAGINEDKSMYSASVTKLPILYFIEKQIKDGRVKLTDKFKYIEQVNQFKGAYKVEGSGEMPKKADNKYYTVDSLLKAVTQHSDNVASNILGYYIAHQYDKTYQKTVLRVADVKWNMESRNVSSKTAANVMEALYSQKSPVISYLTSTEFDNTRISRDIAVPVAHKVGDAYDYKHDVAIIYADQPFILSVFTDKSSYEDISTIADDVYGILK
- soluble on expression in E. coli: not soluble

Sequence: MSEKPLTKTDYLMRLRRCQTIDTLERVIEKNKYELSDNELAELTMNKLYDKIPSSVWKFIRLAVFYSAADHR
- soluble on expression in E. coli: not soluble

Sequence: MFQKLLAFLTVVVFVSAAGNSCKIGKVINKPVIDGTPVYWPASWNETQPAPQLEKEQSCSWYVTIPRGYYAKLIISGKTTDKDSRFQTVDSAGNLIQTTHEKMVPYYFPASKFTLAVSNEGSATFAFKVVWWPLPTEKYVDIVASIGQVINVTETVVAMEYAAPGGITLLTFPEDLKNYNSLRSTLIYDGSSLTSATYVSNLFLLNQSKKQWTSSQDGIVVVNVEASRSMNKLLIQGSVYLAGIDEIVELHPQPNSIYNGTVNAGAHMSSLVAVSDLELQMIDVQMKDDSTVSVYYGSPDAFTLDKTYTGAELKKALPLPFGGYFVQFVVSSGKAVFTFKS
- soluble on expression in E. coli: not soluble

Sequence: MSLELEAKLAQANEQIKELSKREERVRIARDLHDTLGHTLSLLTLKSQLIQRLAASDPERTKLEAKEMETSSRSALKQVRELVSDMRTVTITEELVNIQHILRAGNITFQYEGADDFSVISPVTQNIISMCMREAVTNIIKHSKATHCAITISQFADKMRIVIRDDGKGAPKEKMFGNGLWGMEERLMLIEGGLTVSDHNGTVVALTIPLIKKAEEGHHHHHH
- soluble on expression in E. coli: soluble

Sequence: MGSDKIHHHHHHMTVLIVTFSNDNESIPLVIKEIEARGEKAFRFDTDRYPTEVKLDIYCGDTERVIITDGEQKLDLSEVSSVWYRRMRYGQKIPDSMDKQYRDASIQECRVTVRGMIASLPGFHFDQMANVDRANNKQLQLKVAKEVGLLTPRTLTSNNPEAVKKFAQDCPQGIITKMLSSFAIYDDQGRENVVFTTPITNDDLENMEGLCFCPMTFQENIPKALELRTTIVGHHVFTAAVDSQSLQGSTYDWRKEGKNLAKNWQPYNLPEDIEKKLLKLMANFGLKYGAIDIIVTPDGRHVFLEVNPVGEFFWMEIYPPYYPISQAIAEILLTHKS
- soluble on expression in E. coli: not soluble

Sequence: MGRVLDRIEVVAEEIRGQAVQSEADCRLTDAAAGLLRDSGAIRLLQPRLYGGYEVHPREFAETVMGVAALDGASGWVTGIVGVHPWELAFADPQVQEEIWGEDNDTWMASPYAPMGVATPVDGGYVLKGRWSFSSGTDHCQWAFLGAMVGDGEGGIATPSSLHVILPRTDYQIVEDTWDVIGLRGTGSKDLIVDGAFVPGYRTLNAAKVMDGRAQKEAGRPEPLFNMPYSCMFPLGITAAVIGITEGALACHIAVQKDRVAITGQKIKEDPYVLSAIGESAAEINASRVSLIETADRFYDKVDAGKEITFEERAIGRRTQIAAAWRAVRAADEIFARAGGGALHYKTPMQRFWRDAHAGLAHAVHVPGPTNHASALTQLGGEPQGMMRAMI
- soluble on expression in E. coli: soluble

Sequence: MAPLGTTVLLWSLLRSSPGVERVCFRARIQPWHGGLLQPLPCSFEMGLPRRRFSSEAESGSPETKKPTFMDEEVQSILTKMTGLNLQKTFKPAIQELKPPTYKLMTQAQLEEATRQAVEAAKVRLKMPPVLEERVPINDVLAEDKILEGTETTKYVFTDISYSIPHRCLEHHHHHHH
- soluble on expression in E. coli: not soluble

Sequence: MGSDKIHHHHHHMEKKRILFLANHFITLYSFRKEMIKEMVKKGHELYLSLPKSEENKYFEDLGCHIVETEIDRRGVNPMKDLKLIYFYKKMIPLVNPDIIFSYTIKPNIYGTIASNGKYKQVCNITGTGETFLKRSIVSTICKVLYKLSIKKCYKVFFQNTGDRDFFIKEGLIRENYAMLPGSGCNLQQHVFMPLPEGDEIRFLFIGRVMKLKGIDQYLQAAEIVKKKYPNTKFYIAGWNEQLEYMKLVEEAQKTGSVEYIGFRKDIDQWIEKCHCTILPSHGGEGVPNVLLESSATGRICIGSKINGTMDVIDDGKTGYLFNTGDGEDLARQIEKFIQLSPEEKASMGKVAREKVEREFDRQIVVKAYLDEVTKC
- soluble on expression in E. coli: not soluble

Sequence: MNVGIKGFGAYAPEKIIDNAYFEQFLDTSDEWISKMTGIKERHWADDDQDTSDLAYEASVKAIADAGIQPEDIDMIIVATATGDMPFPTVANMLQERLGTGKVASMDQLAACSGFMYSMITAKQYVQSGDYHNILVVGADKLSKITDLTDRSTAVLFGDGAGAVIIGEVSEGRGIISYEMGSDGTGGKHLYLDKDTGKLKMNGREVFKFAVRIMGDASTRVVEKANLTSDDIDLFIPHQANIRIMESARERLGISKDKMSVSVNKYGNTSAASIPLSIDQELKNGKLKDDDTIVLVGFGGGLTWGAMTIKWGK
- soluble on expression in E. coli: soluble

Sequence: MTDLFASGDNSSNSFDDSNDEIARKNETAFKYTTIFHTNLSEKLYHELCALAFGEFDIPQGQISPLMWTRLHEIYSEVEMQTRKLPAGSNYSASSQKYANEAVQIASVLSIYTALAHEYDETVEVSLLSKLVVEDVEFRRIYALLLWSEKAISEQQYEKGLGDKVRKLEGIKSSRINSMMALKRPTFGAANAPKDASLDPDAPGTKEDQALEQMAMNVFFQLIRSGETSKAANLAIDLGMGAIGAQLQLHSMLRNPLDIPLEASKQNFGEYKRSRRAKYYQMTQKLIEQSQGSEDDAYWMLISAIRGNIQPMLKAGKSVIEKVWAYANSAVLARILAAEGAMTQETISTLFNVPLTSKSILDELRSEADRTKEVYILLRVIDDMLNDDIEDLYKFANETVGEFVPNDKNCQVNMLALDIFFHLVAVSYASGFEPNDDGNAVIILGFDDLRARSGTSSHKKMAAFYSRFLPEDMKLPEIVETMKAVDSDEEREILAESLKQSDIDFGRCACTLIEQIRKDDKTKVVTLEEQIDHWHWLLIGGEETALAALEECNRLVRKVMLSTPIDESVIRQIIRKALHFEVPKLLSQAVENEATVLSLITDGTLFEQKPGSQLAINKIEHAALEFYGLCSFVDVNNFMITIALKLGLMFKYTPITDDELSMIGGVKRLDNTTAADWEASLRVRARAEQTLREEVLKKRAAEHNTRVGMVQQHLDTVLPMLRGLVNNIGVRPEYFLSPRANGDPMRVHRKEIQEIRNLFLPQFFILLAQAAVRLDDTTNFNDFFTSFNNDLGLDQEWMVFIKAFYAELNLKVE
- soluble on expression in E. coli: soluble

Sequence: VKNILLLDSEGKRVAVKYYSDDWPTNAAKLSFEKYVFSKTSKTNARTEAEITLLDSNIIVYKFAQDLHFFVTGGENENELILASVLQGFFDAVALLLRSNVEKMEALENLDLIFLCLDEMVDQGVVL
- soluble on expression in E. coli: not soluble

Sequence: MMDKNQLEQEFHKAMLNIYQEALNLPQPYKATRFLQIVNEFGGKEAADKLLSTGEKKTQTGFTELILSGGGVHALKYSMEYLVLQKPWCDLFTEEQLAVARKRLERVGFVFPK
- soluble on expression in E. coli: not soluble
